Experimental data from paper PMC5484534 (Molecular cell, 2017).

How the values were obtained:
BMAL1 TAD = assay: Cyclophilin acceleration of TAD switch isomerization by 15N-1H ZZ-exchange NMR; assay type: biochemical, mouse; settings: room temperature (22.68°C), 400 μM 15N BMAL1 TAD + 100 μM cyclophilin, 20 mM HEPES pH 7.0 (pH 7.5 for His6GST-PPIL3), 100 mM NaCl, 2 mM TCEP
U2OS Bmal1-dLuc cells = assay: Circadian period of U2OS Bmal1-dLuc cells with inhibitors; assay type: cell-based, human; settings: 0.3% DMSO, n = 3 replicates with 2 independent assays
[1] = system: Bmal1^−/−; Per2^Luc fibroblasts complemented with WT or trans-locked Bmal1; assay: CsA-induced period change in complemented Bmal1-/-; assay type: cell-based, mouse; settings: particularly at 10 μM CsA
cyclophilin family = settings: active site; ref Davis et al., 2010; cited from earlier work
BMAL1 = settings: screen for interacting partners; ref Lipton et al., 2015; cited from earlier work
[2] = system: W624-P625 imide bond of BMAL1 TAD; assay: 15N-1H ZZ-exchange NMR kinetics of TAD switch isomerization; set-up: species or system mouse
[3] = system: Bmal1^−/−; Per2^Luc mouse fibroblasts; assay: Circadian period of complemented Bmal1-/-; assay type: cell-based; settings: stable complementation, 37°C, dexamethasone-synchronized
MLL1 = settings: ref Wang et al., 2010; cited from earlier work
[4] = 25 °C, extrapolated from Eyring plot
[5] = 37 °C, extrapolated from Eyring plot
[6] = 55 °C, 400 μM 15N BMAL1 TAD, 10 mM MES pH 6.5, 50 mM NaCl, 10% D2O
[7] = 60 °C, 400 μM 15N BMAL1 TAD, 10 mM MES pH 6.5, 50 mM NaCl, 10% D2O
[8] = 65 °C, 400 μM 15N BMAL1 TAD, 10 mM MES pH 6.5, 50 mM NaCl, 10% D2O

## PPIH: human nuclear cyclophilin [reference compound]
BMAL1 TAD
  activity on TAD switch isomerization, in words: significantly increased the rate of isomerization in BMAL1

## CC1(C)[C@H](C(=O)O[C@H](C#N)c2cccc(Oc3ccccc3)c2)[C@@H]1C=C(Br)Br [Deltamethrin]
U2OS Bmal1-dLuc cells
  effect on circadian period: did not elicit a change in period

## Cyclosporin A [CsA]
U2OS Bmal1-dLuc cells
  effect on circadian period: dose-dependent lengthening of circadian period with low doses
[1]
  switch-independent effect on period: Switch-independent changes in period
Cyclophilin family
  affinity for cyclophilin family: 5 to 500 nM

## PPIA: peptidyl prolyl isomerase A, human cyclophilin
BMAL1
  co-immunoprecipitation with BMAL1: co-immunoprecipitated with BMAL1

## BMAL1 TAD: Mouse BMAL1 TAD (residues 579–626), recombinant
[2]; 25 °C
  overall exchange lifetime: approximately 10 minutes
[2]; [4]
  Rate of isomerization cis➔trans: 0.00458 s⁻¹
  Rate of isomerization trans➔cis: 0.00264 s⁻¹
  Time per isomerization event cis➔trans: 218.34 s
  Time per isomerization event trans➔cis: 378.78 s
[2]; 25 °C, in words
  detection of isomerization by ZZ exchange: too slow to be detected at room temperature
[2]; [5]
  Rate of isomerization cis➔trans: 0.0233 s⁻¹
  Rate of isomerization trans➔cis: 0.0135 s⁻¹
  Time per isomerization event cis➔trans: 42.92 s
  Time per isomerization event trans➔cis: 74.07 s
[2]; 55 °C
  Time per isomerization event cis➔trans: 4.65 s
  Time per isomerization event trans➔cis: 8.06 s
[2]; [6]
  Rate of isomerization cis➔trans: 0.215 s⁻¹
  Rate of isomerization trans➔cis: 0.124 s⁻¹
[2]; 60 °C
  Time per isomerization event cis➔trans: 2.62 s
  Time per isomerization event trans➔cis: 4.55 s
[2]; [7]
  Rate of isomerization cis➔trans: 0.382 s⁻¹
  Rate of isomerization trans➔cis: 0.22 s⁻¹
[2]; 65 °C
  Time per isomerization event cis➔trans: 1.50 s
  Time per isomerization event trans➔cis: 2.60 s
[2]; [8]
  Rate of isomerization cis➔trans: 0.667 s⁻¹
  Rate of isomerization trans➔cis: 0.384 s⁻¹
[2]; ZZ exchange at increasing temperature
  temperature at which exchange cross peaks first appeared: 55 °C

## wild type Bmal1: Flag-tagged mouse Bmal1 stably complemented in cells
[3]
  circadian period: approximately 23 hours

## PPIE: human nuclear cyclophilin [reference compound]
BMAL1 TAD
  activity on TAD switch isomerization, in words: significantly increased the rate of isomerization in BMAL1
MLL1
  binding to MLL1: binds to the histone methyltransferase MLL1 to modulate its activity

## PPIF: mitochondrial cyclophilin [reference compound]
BMAL1 TAD
  activity on TAD switch isomerization, in words: at least as active on the TAD as the top-ranked nuclear cyclophilins
